B1: eGFP-CENP-E^2070-C (domain or fragment, Homo sapiens, UniProt Q02224 2070-2701, looked up)
chain: RQNHQVKPEKRLLSDGQQHLTESLREKCSRIKELLKRYSEMDDHYECLNRLSLDLEKEIEFQKELSMRVKANLSLPYLQTKHIEKLFTANQRCSMEFHRIMKKLKYVLSYVTKIKEEQHESINKFEMDFIDEVEKQKELLIKIQHLQQDCDVPSRELRDLKLNQNMDLHIEEILKDFSESEFPSIKTEFQQVLSNRKEMTQFLEEWLNTRFDIEKLKNGIQKENDRICQVNNFFNNRIIAIMNESTEFEERSATISKEWEQDLKSLKEKNEKLFKNYQTLKTSLASGAQVNPTTQDNKNPHVTSRATQLTTEKIRELENSLHEAKESAMHKESKIIKMQKELEVTNDIIAKLQAKVHESNKCLEKTKETIQVLQDKVALGAKPYKEEIEDLKMKLVKIDLEKMKNAKEFEKEISATKATVEYQKEVIRLLRENLRRSQQAQDTSVISEHTDPQPSNKPLTCGGGSGIVQNTKALILKSEHIRLEKEISKLKQQNEQLIKQKNELLSNNQHLSNEVKTWKERTLKREAHKQVTCENSPKSPKVTGTASKKKQITPSQCKERNLQDPVPKESPKSCFFDSRSKSLPSPHPVRYFDNSSLGLCPEVQNAGAESVDSQPGPWHASSGKDVPECKTQ
B2: BubR1 pseudokinase domain (KinD, residues 705-1050) (domain or fragment, human, UniProt O60566 705-1050, looked up)
chain: EKLELTNETSENPTQSPWCSQYRRQLLKSLPELSASAELCIEDRPMPKLEIEKEIELGNEDYCIKREYLICEDYKLFWVAPRNSAELTVIKVSSQPVPWDFYINLKLKERLNEDFDHFCSCYQYQDGCIVWHQYINCFTLQDLLQHSEYITHEITVLIIYNLLTIVEMLHKAEIVHGDLSPRCLILRNRIHDPYDCNKNNQALKIVDFSYSVDLRVQLDVFTLSGFRTVQILEGQKILANCSSPYQVDLFGIADLAHLLLFKEHLQVFWDGSFWKLSQNISELKDGELWNKFFVRILNANDEATVSVLGELAAEMNGVFDTTFQSHLNKALWKVGKLTSPGALLFQ

For assay [1], the target named is mCherry-CENP-F^2866-2990 (Homo sapiens) (UniProt P49454). Nature of the assay: AUC.
The target of assay [2] is mCherry-CENP-F^2922-2990 (Homo sapiens) (UniProt P49454). Description: AUC.
Assay [3] has as its target BubR1:Bub3 complex (human, UniProt O60566 1-1050; O43684 1-328). Description: SEC.
Assay [4] concerns the target B1. Description: SEC.

Chain of BubR1:Bub3 complex (O43684 whole entry, one chain of several): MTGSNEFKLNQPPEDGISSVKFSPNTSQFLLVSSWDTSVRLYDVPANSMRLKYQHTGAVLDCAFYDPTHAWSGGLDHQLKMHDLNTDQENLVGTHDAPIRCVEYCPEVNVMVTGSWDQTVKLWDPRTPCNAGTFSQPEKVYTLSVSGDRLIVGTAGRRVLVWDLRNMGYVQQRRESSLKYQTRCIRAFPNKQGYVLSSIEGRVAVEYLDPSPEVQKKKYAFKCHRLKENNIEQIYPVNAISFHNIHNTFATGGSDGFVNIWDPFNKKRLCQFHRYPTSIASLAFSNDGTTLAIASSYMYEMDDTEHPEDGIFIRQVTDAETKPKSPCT

Take “mCherry-CENP-F^2866-2990 (from UniProt P49454 2866-2990) (domain or fragment)”: in assay [1], the stoichiometry N (usually the number of molecules, sites or subunits per partner or assembly) was 2.
As to “mCherry-CENP-F^2922-2990 (from UniProt P49454 2922-2990) (domain or fragment)”, the stoichiometry N in assay [2] turned out to be 2.
For B1, the binding result in assay [3] is “binds”.
Turning to B2, the binding result in assay [4] is “binds”.
